From US20220010021A1 (Sanofi, published 2022)

T1: human beta-Klotho (KLB) (human, UniProt Q86Z14 53-997)
T1 construct: Bought soluble protein; also called human KLB; ß-Klotho
T1 sequence (looked up): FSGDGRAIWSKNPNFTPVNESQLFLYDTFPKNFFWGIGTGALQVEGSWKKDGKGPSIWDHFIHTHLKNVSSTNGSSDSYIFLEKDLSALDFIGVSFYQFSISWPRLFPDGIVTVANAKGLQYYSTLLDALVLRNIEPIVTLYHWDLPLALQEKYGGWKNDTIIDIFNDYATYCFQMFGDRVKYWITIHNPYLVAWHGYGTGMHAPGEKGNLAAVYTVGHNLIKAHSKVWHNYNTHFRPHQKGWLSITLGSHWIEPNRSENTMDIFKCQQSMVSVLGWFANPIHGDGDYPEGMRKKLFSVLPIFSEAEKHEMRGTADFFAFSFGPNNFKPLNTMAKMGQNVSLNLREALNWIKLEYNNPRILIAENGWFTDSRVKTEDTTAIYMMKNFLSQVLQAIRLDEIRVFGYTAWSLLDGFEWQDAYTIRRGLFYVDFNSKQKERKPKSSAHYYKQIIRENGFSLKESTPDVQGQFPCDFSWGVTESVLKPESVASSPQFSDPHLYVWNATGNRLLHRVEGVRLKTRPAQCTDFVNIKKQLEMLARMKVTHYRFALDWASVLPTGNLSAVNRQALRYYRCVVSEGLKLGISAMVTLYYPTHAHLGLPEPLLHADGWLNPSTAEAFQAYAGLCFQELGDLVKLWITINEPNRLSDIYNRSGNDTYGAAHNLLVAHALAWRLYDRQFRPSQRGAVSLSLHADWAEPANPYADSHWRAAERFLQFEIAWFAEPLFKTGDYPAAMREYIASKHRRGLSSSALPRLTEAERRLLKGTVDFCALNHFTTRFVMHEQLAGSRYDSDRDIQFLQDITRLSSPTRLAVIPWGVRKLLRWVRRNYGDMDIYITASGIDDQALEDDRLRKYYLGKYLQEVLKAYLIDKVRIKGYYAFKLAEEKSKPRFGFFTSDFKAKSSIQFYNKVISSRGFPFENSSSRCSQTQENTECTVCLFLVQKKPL

T2: human beta-Klotho (KLB) (human, UniProt Q86Z14 53-997)
T2 construct: Bought protein; also called human KLB; β-Klotho
T2 sequence (looked up): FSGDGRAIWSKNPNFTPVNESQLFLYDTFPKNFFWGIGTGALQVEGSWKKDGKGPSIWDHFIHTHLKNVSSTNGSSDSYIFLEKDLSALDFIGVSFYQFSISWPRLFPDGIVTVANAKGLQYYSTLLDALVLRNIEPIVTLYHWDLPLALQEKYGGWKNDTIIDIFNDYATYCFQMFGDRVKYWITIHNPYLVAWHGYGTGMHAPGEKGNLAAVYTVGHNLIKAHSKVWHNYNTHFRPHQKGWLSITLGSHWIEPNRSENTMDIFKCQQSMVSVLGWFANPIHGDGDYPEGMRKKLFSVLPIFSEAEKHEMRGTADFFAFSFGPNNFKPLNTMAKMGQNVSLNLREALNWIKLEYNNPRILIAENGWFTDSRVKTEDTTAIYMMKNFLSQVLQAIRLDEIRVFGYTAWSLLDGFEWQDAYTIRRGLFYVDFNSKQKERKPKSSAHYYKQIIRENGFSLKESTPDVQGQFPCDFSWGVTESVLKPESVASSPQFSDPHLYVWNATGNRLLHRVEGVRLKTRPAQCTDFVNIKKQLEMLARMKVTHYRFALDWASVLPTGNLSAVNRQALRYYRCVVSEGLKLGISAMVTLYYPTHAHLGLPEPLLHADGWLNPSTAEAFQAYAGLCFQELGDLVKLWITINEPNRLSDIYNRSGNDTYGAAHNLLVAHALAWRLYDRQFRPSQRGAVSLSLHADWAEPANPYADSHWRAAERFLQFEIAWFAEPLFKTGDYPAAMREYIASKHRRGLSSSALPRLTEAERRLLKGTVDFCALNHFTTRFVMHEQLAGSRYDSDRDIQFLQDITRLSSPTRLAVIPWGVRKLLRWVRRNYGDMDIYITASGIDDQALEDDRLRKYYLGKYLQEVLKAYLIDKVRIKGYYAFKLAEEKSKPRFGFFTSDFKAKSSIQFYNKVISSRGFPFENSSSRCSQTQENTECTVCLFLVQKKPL

B1: 16H7 variant with light chain substitution D95S (antibody, human IgG4 S228P, lambda, V domains shown)
VH: not shown
VL: SYVLTQPPSVSVAPGQTARITCGGNNIGSESVHWYQQKPGQAPVLVVYDDSDRPSGIPERFSGSNSGNTATLTISRVEAGDEADYYCQVWDGNSSHVVFGGGTKLTVLG
B2: 16H7 light chain variant G28A (antibody, human IgG4 S228P, lambda, V domains shown)
VH: not shown
VL: SYVLTQPPSVSVAPGQTARITCGGNNIASESVHWYQQKPGQAPVLVVYDDSDRPSGIPERFSGSNSGNTATLTISRVEAGDEADYYCQVWDGNSDHVVFGGGTKLTVLG
B3: 16H7 light chain variant E30G (antibody, human IgG4 S228P, lambda, V domains shown)
VH: not shown
VL: SYVLTQPPSVSVAPGQTARITCGGNNIGSGSVHWYQQKPGQAPVLVVYDDSDRPSGIPERFSGSNSGNTATLTISRVEAGDEADYYCQVWDGNSDHVVFGGGTKLTVLG
B4: 16H7 light chain variant V98F (antibody, IgG4, V domains shown)
VH: not shown
VL: SYVLTQPPSVSVAPGQTARITCGGNNIGSESVHWYQQKPGQAPVLVVYDDSDRPSGIPERFSGSNSGNTATLTISRVEAGDEADYYCQVWDGNSDHVFFGGGTKLTVLG
notes: IgG4 backbone
B5: 16H7 light chain variant V98C (antibody, IgG4, V domains shown)
VH: not shown
VL: SYVLTQPPSVSVAPGQTARITCGGNNIGSESVHWYQQKPGQAPVLVVYDDSDRPSGIPERFSGSNSGNTATLTISRVEAGDEADYYCQVWDGNSDHVCFGGGTKLTVLG
notes: IgG4 backbone
B6: 16H7 light chain variant V97T (antibody, IgG4, V domains shown)
VH: not shown
VL: SYVLTQPPSVSVAPGQTARITCGGNNIGSESVHWYQQKPGQAPVLVVYDDSDRPSGIPERFSGSNSGNTATLTISRVEAGDEADYYCQVWDGNSDHTVFGGGTKLTVLG
notes: IgG4 backbone
B7: 16H7 light chain variant V98S (antibody, IgG4, V domains shown)
VH: not shown
VL: SYVLTQPPSVSVAPGQTARITCGGNNIGSESVHWYQQKPGQAPVLVVYDDSDRPSGIPERFSGSNSGNTATLTISRVEAGDEADYYCQVWDGNSDHVSFGGGTKLTVLG
notes: IgG4 backbone
B8: 16H7 light chain variant V98Q (antibody, IgG4, V domains shown)
VH: not shown
VL: SYVLTQPPSVSVAPGQTARITCGGNNIGSESVHWYQQKPGQAPVLVVYDDSDRPSGIPERFSGSNSGNTATLTISRVEAGDEADYYCQVWDGNSDHVQFGGGTKLTVLG
notes: IgG4 backbone
B9: 16H7 light chain variant E30C (antibody, V domains shown)
VH: not shown
VL: SYVLTQPPSVSVAPGQTARITCGGNNIGSCSVHWYQQKPGQAPVLVVYDDSDRPSGIPERFSGSNSGNTATLTISRVEAGDEADYYCQVWDGNSDHVVFGGGTKLTVLG
notes: copies: 2 + 2
B10: 16H7 light chain variant V97N (antibody, IgG4, V domains shown)
VH: not shown
VL: SYVLTQPPSVSVAPGQTARITCGGNNIGSESVHWYQQKPGQAPVLVVYDDSDRPSGIPERFSGSNSGNTATLTISRVEAGDEADYYCQVWDGNSDHNVFGGGTKLTVLG
notes: IgG4 backbone
B11: 16H7 light chain variant V97M (antibody, IgG4, V domains shown)
VH: not shown
VL: SYVLTQPPSVSVAPGQTARITCGGNNIGSESVHWYQQKPGQAPVLVVYDDSDRPSGIPERFSGSNSGNTATLTISRVEAGDEADYYCQVWDGNSDHMVFGGGTKLTVLG
notes: IgG4 backbone
B12: 16H7 light chain variant V98M (antibody, IgG4, V domains shown)
VH: not shown
VL: SYVLTQPPSVSVAPGQTARITCGGNNIGSESVHWYQQKPGQAPVLVVYDDSDRPSGIPERFSGSNSGNTATLTISRVEAGDEADYYCQVWDGNSDHVMFGGGTKLTVLG
notes: IgG4 backbone
B13: 16H7 light chain variant V98I (antibody, IgG4, V domains shown)
VH: not shown
VL: SYVLTQPPSVSVAPGQTARITCGGNNIGSESVHWYQQKPGQAPVLVVYDDSDRPSGIPERFSGSNSGNTATLTISRVEAGDEADYYCQVWDGNSDHVIFGGGTKLTVLG
notes: IgG4 backbone
B14: 16H7 light chain variant E30D (antibody, human IgG4 S228P, lambda, V domains shown)
VH: not shown
VL: SYVLTQPPSVSVAPGQTARITCGGNNIGSDSVHWYQQKPGQAPVLVVYDDSDRPSGIPERFSGSNSGNTATLTISRVEAGDEADYYCQVWDGNSDHVVFGGGTKLTVLG
B15: 16H7 light chain variant E30F (antibody, V domains shown)
VH: not shown
VL: SYVLTQPPSVSVAPGQTARITCGGNNIGSFSVHWYQQKPGQAPVLVVYDDSDRPSGIPERFSGSNSGNTATLTISRVEAGDEADYYCQVWDGNSDHVVFGGGTKLTVLG
notes: copies: 2 + 2
B16: 16H7 light chain variant V98R (antibody, IgG4, V domains shown)
VH: not shown
VL: SYVLTQPPSVSVAPGQTARITCGGNNIGSESVHWYQQKPGQAPVLVVYDDSDRPSGIPERFSGSNSGNTATLTISRVEAGDEADYYCQVWDGNSDHVRFGGGTKLTVLG
notes: IgG4 backbone
B17: 16H7 light chain variant V98P (antibody, IgG4, V domains shown)
VH: not shown
VL: SYVLTQPPSVSVAPGQTARITCGGNNIGSESVHWYQQKPGQAPVLVVYDDSDRPSGIPERFSGSNSGNTATLTISRVEAGDEADYYCQVWDGNSDHVPFGGGTKLTVLG
notes: IgG4 backbone
B18: 16H7 variant with light chain substitution S94K (antibody, human IgG4 S228P, lambda, V domains shown)
VH: not shown
VL: SYVLTQPPSVSVAPGQTARITCGGNNIGSESVHWYQQKPGQAPVLVVYDDSDRPSGIPERFSGSNSGNTATLTISRVEAGDEADYYCQVWDGNKDHVVFGGGTKLTVLG
B19: 16H7 light chain variant E30A (antibody, V domains shown)
VH: not shown
VL: SYVLTQPPSVSVAPGQTARITCGGNNIGSASVHWYQQKPGQAPVLVVYDDSDRPSGIPERFSGSNSGNTATLTISRVEAGDEADYYCQVWDGNSDHVVFGGGTKLTVLG
notes: copies: 2 + 2
B20: 16H7 light chain variant E30I (antibody, human IgG4 S228P, lambda, V domains shown)
VH: not shown
VL: SYVLTQPPSVSVAPGQTARITCGGNNIGSISVHWYQQKPGQAPVLVVYDDSDRPSGIPERFSGSNSGNTATLTISRVEAGDEADYYCQVWDGNSDHVVFGGGTKLTVLG
B21: 16H7 light chain variant V98N (antibody, IgG4, V domains shown)
VH: not shown
VL: SYVLTQPPSVSVAPGQTARITCGGNNIGSESVHWYQQKPGQAPVLVVYDDSDRPSGIPERFSGSNSGNTATLTISRVEAGDEADYYCQVWDGNSDHVNFGGGTKLTVLG
notes: IgG4 backbone

Tests used:
[1] = target: cell surface receptor composed of the tyrosine kinase receptor FGFR1c and co-receptor beta-Klotho (KLB) (human, UniProt P11362 22-822; Q86Z14 1-1044); assay: cell-based or functional assay
Chain of cell surface receptor composed of the tyrosine kinase receptor FGFR1c and co-receptor beta-Klotho (KLB) (P11362 22-822, chain 1 of 2): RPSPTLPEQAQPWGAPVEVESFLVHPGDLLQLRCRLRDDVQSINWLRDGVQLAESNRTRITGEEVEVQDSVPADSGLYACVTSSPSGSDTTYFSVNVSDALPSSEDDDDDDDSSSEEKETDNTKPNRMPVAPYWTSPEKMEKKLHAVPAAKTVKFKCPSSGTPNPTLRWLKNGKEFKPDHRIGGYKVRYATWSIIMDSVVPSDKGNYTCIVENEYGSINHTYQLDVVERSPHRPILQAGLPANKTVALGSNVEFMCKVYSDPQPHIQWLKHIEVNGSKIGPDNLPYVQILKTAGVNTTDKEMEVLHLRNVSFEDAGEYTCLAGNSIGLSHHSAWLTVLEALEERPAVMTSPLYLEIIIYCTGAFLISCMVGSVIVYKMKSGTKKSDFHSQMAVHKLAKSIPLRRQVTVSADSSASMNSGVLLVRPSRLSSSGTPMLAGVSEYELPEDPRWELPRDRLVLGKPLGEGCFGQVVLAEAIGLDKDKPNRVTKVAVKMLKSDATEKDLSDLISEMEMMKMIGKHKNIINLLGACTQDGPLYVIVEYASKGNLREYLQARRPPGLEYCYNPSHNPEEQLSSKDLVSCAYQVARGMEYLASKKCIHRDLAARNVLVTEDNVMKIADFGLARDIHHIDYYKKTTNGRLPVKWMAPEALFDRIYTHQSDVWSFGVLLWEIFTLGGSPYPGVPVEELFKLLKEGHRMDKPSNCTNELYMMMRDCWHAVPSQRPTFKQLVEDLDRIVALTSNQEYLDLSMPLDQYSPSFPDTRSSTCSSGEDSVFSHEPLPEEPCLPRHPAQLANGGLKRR
Chain of cell surface receptor composed of the tyrosine kinase receptor FGFR1c and co-receptor beta-Klotho (KLB) (Q86Z14 whole entry, chain 2 of 2): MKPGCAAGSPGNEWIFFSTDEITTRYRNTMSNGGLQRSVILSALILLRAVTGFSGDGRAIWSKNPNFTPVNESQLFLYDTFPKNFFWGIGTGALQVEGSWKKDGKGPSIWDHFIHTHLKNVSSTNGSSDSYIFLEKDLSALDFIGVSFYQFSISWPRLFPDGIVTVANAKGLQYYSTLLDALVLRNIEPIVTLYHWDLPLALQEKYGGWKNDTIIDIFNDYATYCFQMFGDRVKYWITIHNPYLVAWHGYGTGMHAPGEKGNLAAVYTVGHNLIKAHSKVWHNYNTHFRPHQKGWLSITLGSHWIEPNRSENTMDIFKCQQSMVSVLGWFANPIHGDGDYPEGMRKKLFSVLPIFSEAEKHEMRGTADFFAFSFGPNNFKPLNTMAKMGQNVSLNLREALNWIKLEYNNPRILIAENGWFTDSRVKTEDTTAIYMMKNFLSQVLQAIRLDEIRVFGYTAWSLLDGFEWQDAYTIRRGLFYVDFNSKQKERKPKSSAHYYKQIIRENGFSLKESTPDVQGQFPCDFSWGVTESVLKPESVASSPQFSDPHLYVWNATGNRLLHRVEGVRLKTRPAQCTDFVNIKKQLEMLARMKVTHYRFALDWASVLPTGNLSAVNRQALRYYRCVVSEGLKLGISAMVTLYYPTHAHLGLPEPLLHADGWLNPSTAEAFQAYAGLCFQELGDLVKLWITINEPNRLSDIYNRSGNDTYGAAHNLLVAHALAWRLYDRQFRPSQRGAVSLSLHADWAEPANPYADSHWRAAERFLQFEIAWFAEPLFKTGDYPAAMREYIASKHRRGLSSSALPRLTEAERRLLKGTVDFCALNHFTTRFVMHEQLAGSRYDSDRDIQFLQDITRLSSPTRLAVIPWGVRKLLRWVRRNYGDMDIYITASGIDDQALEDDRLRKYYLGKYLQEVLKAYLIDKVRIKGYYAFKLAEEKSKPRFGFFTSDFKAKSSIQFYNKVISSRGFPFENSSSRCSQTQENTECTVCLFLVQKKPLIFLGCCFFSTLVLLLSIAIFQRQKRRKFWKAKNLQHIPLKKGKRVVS

[2] = target: cell surface receptor composed of FGFR1c and co-receptor beta-Klotho (KLB) (human, UniProt P11362 22-822; Q86Z14 1-1044); assay: cell-based or functional assay
Target sequence in this assay (P11362 22-822, chain 1 of 2): as the sequence (P11362 22-822, chain 1 of 2) above
Target sequence in this assay (Q86Z14 whole entry, chain 2 of 2): as the sequence (Q86Z14 whole entry, chain 2 of 2) above

human beta-Klotho (KLB) [3] = target: T1, human beta-Klotho (KLB); assay: BLI off-rate screen, supernatant;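 also: expression supernatants tested at 25 µg/mL, dissociation followed for 1800 s in D-PBS with 0.1% BSA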
[4] = target: cell surface receptor composed of FGFR1c and co-receptor beta-Klotho (KLB) (human, UniProt P11362 22-822; Q86Z14 1-1044); assay: cell-based or functional assay; remark: listed apart in the source
Target sequence in this assay (P11362 22-822, chain 1 of 2): as the sequence (P11362 22-822, chain 1 of 2) above
Target sequence in this assay (Q86Z14 whole entry, chain 2 of 2): as the sequence (Q86Z14 whole entry, chain 2 of 2) above

human beta-Klotho (KLB) [5] = target: T2, human beta-Klotho (KLB); assay: BLI off-rate screening (Octet), crude supernatant;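 also: supernatants tested at 25 µg/mL, dissociation from biosensors recorded in D-PBS with 0.1% BSA over 1800 s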
For Mean E max, Luciferase reporter gene assay in this document: reference of the scale not given here.

Binder | Mean E max, Luciferase gene reporter assay [1] | Mean E max, Luciferase reporter gene assay [2] | Mean EC50, Luciferase reporter gene assay [2] | koff (human beta-Klotho (KLB) [3]) | Mean E max, Luciferase reporter gene assay [4] | Mean EC50, Luciferase reporter gene assay [4] | koff (human beta-Klotho (KLB) [5]) | Mean EC50, Luciferase gene reporter assay [1]
B1 | 37% | – | – | – | – | – | – | –
B2 | – | 92% | 0.123 nM | 3.3e-05 s⁻¹ | – | – | – | –
B3 | – | 94% | 0.138 nM | 4.8e-05 s⁻¹ | – | – | – | –
B4 | – | – | – | – | 102% | 0.161 nM | 1.6e-05 s⁻¹ | –
B5 | – | – | – | – | 100% | 0.105 nM | 6.4e-05 s⁻¹ | –
B6 | – | – | – | – | 99% | 0.142 nM | 0.0001 s⁻¹ | –
B7 | – | – | – | – | 107% | 0.094 nM | 3.9e-05 s⁻¹ | –
B8 | – | – | – | – | 111% | 0.121 nM | 3.7e-05 s⁻¹ | –
B9 | – | 92% | 0.114 nM | 9.6e-05 s⁻¹ | – | – | – | –
B10 | – | – | – | – | 95% | 0.206 nM | 0.00033 s⁻¹ | –
B11 | – | – | – | – | 103% | 0.214 nM | 3.3e-05 s⁻¹ | –
B12 | – | – | – | – | 108% | 0.114 nM | 7.2e-05 s⁻¹ | –
B13 | – | – | – | – | 116% | 0.105 nM | 3.3e-05 s⁻¹ | –
B14 | – | 96% | 0.118 nM | 3.6e-05 s⁻¹ | – | – | – | –
B15 | – | 92% | 0.107 nM | 9.7e-05 s⁻¹ | – | – | – | –
B16 | – | – | – | – | 99% | 0.099 nM | 0.00011 s⁻¹ | –
B17 | – | – | – | – | 89% | 0.131 nM | 7.3e-05 s⁻¹ | –
B18 | 104% | – | – | – | – | – | – | 0.185 nM
B19 | – | 103% | 0.146 nM | 5.1e-05 s⁻¹ | – | – | – | –
B20 | – | 108% | 0.136 nM | 7.3e-05 s⁻¹ | – | – | – | –
B21 | – | – | – | – | 112% | 0.111 nM | 2.1e-05 s⁻¹ | –
